Measurements from patent US20250304937A1.
Read-outs that look alike come from different tables or passages of the source.

How the values were obtained:
[1] = target: IVIg (Octagam), pool of human IgG (human); assay: cell-based or functional assay
[2] = target: IVIg (Octagam), pool of human IgG (human); assay: cell-based or functional assay; remark: listed apart in the source

pCART124 (IdeS control with N terminal methionine and histidine tag) (enzyme)
2nd IgG heavy chain scIgG to F(ab')2, Conc. of enzyme (ng/ml), gel [1]: 6000 ng/mL | 1st IgG heavy chain IgG to scIgG, Conc. of enzyme (ng/ml), gel [2]: 1900 ng/mL | 2nd IgG heavy chain scIgG to F(ab')2, Conc. of enzyme (ng/ml), gel [2]: 7500 ng/mL
